Laboratory results taken from patent US20240262893A1.

B1: purified R2G3 CDR3-knob (after enterokinase cleavage from trxA) (peptide)
peptide: EGDKTCPDGYEHTCGCIGGCGCKRSACIGALCCQASLGGWLSDGETYTYEF
modifications: not checked
B2: R2D9 CDR3-knob (peptide)
peptide: ITHKTCPNGYNWFDRCCSWDGTCGDGCCSNRAWPSGNGRADSSIGETYGYEF
modifications: not checked

How the values were obtained:
[1] = target: SARS-CoV-2 B.1.351 ('SA', beta) variant spike protein on pseudotyped virus or live virus (SARS-CoV-2 (B.1.351)), P0DTC2; experiment: cell-based or functional assay
[2] = target: SARS-CoV-2 B.1.1.7 ('UK', alpha) variant spike protein on pseudotyped virus or live virus (SARS-CoV-2 (B.1.1.7)); experiment: cell-based or functional assay

Binder | live SARS CoV-2 neutralization, ng/mL (quantity not given) [1] | pseudovirus neutralization, ng/mL (quantity not given) [1] | live SARS CoV-2 neutralization, ng/mL (quantity not given) [2]
B1 | 374 ng/mL | 66.2 ng/mL | 2.48 ng/mL
B2 |  | 22.6 ng/mL | 
